What was measured:
[1] = tested on: T1, C=COC(=O)/C=C/c1ccc(O)c(OC)c1; experiment: transesterification rate by HPLC, nonlinear Michaelis-Menten fit; type: biochemical, Thermothelomyces thermophilus; settings: acyl donor, 200 mM prenol, n-hexane:t-butanol:100 mM MOPS-NaOH pH 6.0 19.8:74.7:5.5 v/v/v microemulsion, 40 °C, 8 h, error = SE
T1 construct: secreted, over-expressed in low-background M. thermophila C1 host
Description: transesterification rate by HPLC, nonlinear Michaelis-Menten fit on FaeA2

[2] = substrate: C=COC(=O)/C=C/c1ccc(O)c(OC)c1; experiment: as above; type: biochemical, Thermothelomyces thermophilus; settings: acyl donor, 200 mM prenol, n-hexane:t-butanol:100 mM MOPS-NaOH pH 6.0 53.4:43.4:3.2 v/v/v microemulsion, 40 °C, 8 h, error = SE
Description: transesterification rate by HPLC, nonlinear Michaelis-Menten fit on MtFae1a

For FaeA2 (Thermothelomyces thermophilus), the Km [1] was 46.5 (18.1) mM.

B1: MtFae1a (Thermothelomyces thermophilus ATCC 42464) (protein)
chain: ASLQEVTEFGDNPTNIQMYIYVPDQLDTNPPVIVALHPCGGSAQQWFSGTQLPSYADDNGFILIYPSTPHMSNCWDIQNPDTLTHGQGGDALGIVSMVNYTLDKHSGDSSRVYAMGFSSGGMMTNQLAGSYPDVFEAGAVYSGVAFGCAAGAESATPFSPNQTCAQGLQKTAQEWGDFVRNAYAGYTGRRPRMQIFHGLEDTLVRPQCAEEALKQWSNVLGVELTQEVSGVPSPGWTQKIYGDGTQLQGFFGQGIGHQSTVNEQQLLQWFGLI
notes: secreted from Pichia pastoris X33, glycosylated
In the case of B1, the Km [2] is reported as 81.2 (22.3) mM.
